Here are results for 3 molecules from patent US20230330254A1 (Regeneron Pharmaceuticals, Inc., priority 2022, published 2023).

Bounds are passed on as bounds.

In assay [1] the target is T1, hGLP1R-MMH (N-terminal region of human GLP1R) (Homo sapiens, UniProt P43220).
T1 construct: the N-terminal ectodomain of human GLP1R expressed with a myc-myc hexahistidine tag
Description: Biacore binding kinetics (surface plasmon resonance). The following applies: 25° C.; for Ka: association rate. The protocol:
The equilibrium dissociation constant (KD) for GLP1R binding to different unconjugated GLP1R monoclonal antibodies (mAbs) or to GLP1R antibody tethered drug conjugates (ATDCs) was determined using a real-time surface plasmon resonance biosensor using a Biacore 3000, Biacore S200, Biacore 4000, Biacore T-200, or a Sierra Sensor MASS-2 instrument. All binding studies were performed in 10 mM HEPES, 150 mM NaCl, 3 mM EDTA, and 0.05% v/v Surfactant Tween-20, pH 7.4 (HBS-ET) running buffer at 25° C. The Biacore CM5 sensor chip surface was first derivatized by amine coupling with human Fc specific mouse mAb (REGN2567) to capture different GLP1R mAbs or ATDCs. Different concentrations (100, 90, 33.3, 30, 11.1, 10, 3.7, 3.3 and 1.1 nM) of the N-terminal region of human GLP1R expressed with a myc-myc-hexahistidine tag (“hexahistidine tag” disclosed as SEQ ID NO: 441) (hGLP1R-MMH) prepared in HBS-ET running buffer were injected over the GLP1R mAb captured surface for 240 or 300 sec at a flow rate of 50 μL/min and their dissociation in HBS-ET running buffer was monitored for 10 minutes. At the end of each cycle, the GLP1R mAb or ATDC capture surface was regenerated using a 10 sec injection of 20 mM phosphoric acid.
The association rate (ka) and dissociation rate (kd) were determined by fitting the real-time binding sensorgrams to a 1:1 binding model with mass transport limitation using Scrubber 2.0c curve-fitting software. Binding dissociation equilibrium constant (KD) and dissociative half-life (t %2) were calculated from the kinetic rates as: […]
On the technique in general: Surface plasmon resonance follows binding to a sensor surface in real time, without labels.

The next assay relates to HEK293/CRE-Luc cells. The assay is described as follows: Flow cytometry cell binding, HEK293/CRE-Luc control cells (Example 18). Set-up: species or system human. The following applies: Table 30, control cells lacking GLP1R; for EC50: no unit printed in table (text reads values as M); for HEK293/CRE-Luc Flow S/N: signal to noise. As to the method:
GLP1R agonist linker payloads were conjugated to anti-GLP1R antibodies via N-terminal heavy or light chain Glutamine (Q) tags. Several resulting anti-GLP1R-GLP1R agonist antibody tethered drug conjugates (ATDCs) and their unconjugated parental antibodies were tested for cell-based binding activity. The cell surface binding of the anti-GLP1R ATDCs to human GLP1R (HEK293/CRE-Luc/hGLP1R), cynomolgus GLP1R (HEK293/CRE-Luc/mfGLP1R), and control cells lacking expression of GLP1R (HEK293/CRE-Luc) was assessed via flow cytometry. For the assay, 61,000-230,000 cells were suspended in PBS, w/2% FBS and 0.2% sodium azide (staining buffer) in 96 well V-bottom plates and incubated for 30 minutes at 4° C. with three-fold serial dilutions of the anti-GLP1R ATDCs, non-binding control ATDCs, or unconjugated anti-GLP1R antibodies. The last well in each row of the plate served as a blank control containing only secondary antibody and was plotted as a continuation of the 3-fold serial dilution. […] Cells were then washed once and stained with a cell viability dye (Live/dead Fixable Green Dead Cell Stain Kit for 488 nm excitation, Molecular Probes cat #L34970) at 1× in PBS for 20 minutes at 4° C. Cells were washed once in staining buffer, fixed for 20 minutes at 4° C. using a 50% solution of Cytofix (BD Biosciences, Cat #554655) diluted in PBS, and washed again in staining buffer. Samples were filtered through Pall 96 well plate PP/PE mesh filter system and collected in Costar 96 well plate. Samples were run on the iQue flow cytometer (Intellicyte) and results were analyzed using Forecyte analysis software (Intellicyte) to calculate the mean fluorescent intensity (MFI) after gating for live cells. EC50 values were determined using a four-parameter logistic equation over a 10-point dose response curve (GraphPad Prism). The signal to noise (S/N) was determined by taking the ratio of the highest MFI on the dose response curve to the MFI in the secondary alone wells.
A general note: Flow cytometry measures light scatter and fluorescence of single cells or particles in a stream.

A further assay has as its target T2, human GLP1R (Homo sapiens, UniProt P43220).
T2 construct: engineered to express full-length human GLP1R, cynomolgus GLP1R; expressed in transfected cells; host or cells: HEK293/CRE-Luc
Description: Flow cytometry cell binding, HEK293/CRE-Luc/hGLP1R (Example 18). The following applies: Table 30, no unit printed in table (text b1840 reads values as M), experiments A, C, D. The protocol: GLP1R agonist linker payloads were conjugated to anti-GLP1R antibodies via N-terminal heavy or light chain Glutamine (Q) tags. […] The cell surface binding of the anti-GLP1R ATDCs to human GLP1R (HEK293/CRE-Luc/hGLP1R), cynomolgus GLP1R (HEK293/CRE-Luc/mfGLP1R), and control cells lacking expression of GLP1R (HEK293/CRE-Luc) was assessed via flow cytometry. […] The last well in each row of the plate served as a blank control containing only secondary antibody and was plotted as a continuation of the 3-fold serial dilution. […] Samples were filtered through Pall 96 well plate PP/PE mesh filter system and collected in Costar 96 well plate. Samples were run on the iQue flow cytometer (Intellicyte) and results were analyzed using Forecyte analysis software (Intellicyte) to calculate the mean fluorescent intensity (MFI) after gating for live cells. EC50 values were determined using a four-parameter logistic equation over a 10-point dose response curve (GraphPad Prism). The signal to noise (S/N) was determined by taking the ratio of the highest MFI on the dose response curve to the MFI in the secondary alone wells.

T1 sequence (P43220 24-139 limits assumed): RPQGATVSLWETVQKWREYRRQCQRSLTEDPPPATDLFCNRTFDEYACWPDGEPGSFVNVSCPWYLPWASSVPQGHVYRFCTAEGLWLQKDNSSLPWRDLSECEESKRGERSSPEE
T2 sequence (P43220 24-463): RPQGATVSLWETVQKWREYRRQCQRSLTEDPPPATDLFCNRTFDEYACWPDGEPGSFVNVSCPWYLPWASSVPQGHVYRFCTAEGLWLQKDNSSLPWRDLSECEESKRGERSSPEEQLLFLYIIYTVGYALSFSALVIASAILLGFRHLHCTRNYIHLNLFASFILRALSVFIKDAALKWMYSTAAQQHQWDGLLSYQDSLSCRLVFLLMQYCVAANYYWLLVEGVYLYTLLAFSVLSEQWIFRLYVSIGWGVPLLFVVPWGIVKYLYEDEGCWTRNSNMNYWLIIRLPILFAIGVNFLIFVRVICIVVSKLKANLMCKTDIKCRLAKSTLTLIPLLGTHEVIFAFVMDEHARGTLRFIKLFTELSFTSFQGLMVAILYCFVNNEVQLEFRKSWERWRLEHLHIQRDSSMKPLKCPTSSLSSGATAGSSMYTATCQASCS

B1: H2aM30341N (antibody, V domains shown)
VH: QVQLQQWGAGLLKPSETLSLTCAVYGGSFSGYYWSWIRQPPGKGLEWIGEINHAGSTNYNPSLKSRITISVDTSKNQFSLKLSSVTAADTAVYYCARGWYYGSGSYHRNWFDPWGQGTLVTVSS
VL: EIVLTQSPGTLSLSPGERATLSCRASQSVYYSYLAWYQQKPGQAPRLLIYGASNRATGIPDRFSGSGSGTDFTLTISRLEPEDFAVYYCQQYGNSPWTFGQGTKVEIK
For B1, in assay [1] (hGLP1R-MMH), the Ka was determined as 224000 M⁻¹ s⁻¹ and the “dissociation rate constant (kd)” value worked out at 7.74e-05 s⁻¹. In the assay with HEK293/CRE-Luc cells, the concentration giving a half-maximal response (EC50) is > 100000 pM and the “HEK293/CRE-Luc Flow S/N” value is given as 11.8.

B2: H4H30439P (antibody, V domains shown)
VH: QVQLVESGGGVVQPGRSLRLSCAASGFTFSGYGIHWVRQAPGKGLVWVAVIWYDGSFKYYADSVKGRFTISRDNSKNTLYLQMNSLRAEDTAVYYCARGDSSSSGRYYYYGMDVWGQGTTVTVSS
VL: DIQMTQSPSSLSASVGDRVTITCRASQGIRNDLGWYQQKPGTAPKRLIFAASSLQSGVPSRFSGSGSGTEFTLTISSLQPEDFATYYCLQHNNYPPTFGGGTKVEIK
In the case of B2, in assay [1] (antibody captured on anti-human Fc surface, 90 nM hGLP1R-MMH), the “90 nM hGLP1R.mmh Bound” value worked out at 152.4 RU. Besides, in assay [1] (hGLP1R-MMH), the Ka came out at 277000 M⁻¹ s⁻¹ and the “dissociation rate constant (kd)” value is 0.000189 s⁻¹. In assay [1] (hGLP1R-MMH, calculated from the kinetic rates), the Kd was 681 pM. Besides, the EC50 in the assay with human GLP1R was determined as 769 pM.

B3: REGN8051 (antibody, V domains shown)
VH: QVQLVESGGGVGQPGRSLRLSCAASGFTFSRNAMHWVRQAPGKGLEWVAVISYDGSNKHYADSVKGRFTISRDNSKNTLYLEMNSLRVEDTAVYYCAKGGIPFDYWGQGTLVTVSS
VL: DIVMTQSPLSSPVTLGQPASISCRSSQSLVHFDGNTYLSWLHQRPGQPPRLLIYKISNRFSGVPDRFSGSGAGTDFTLKISRVEPEDVGVYYCMHATQFPYTFGQGTKLEIK
With B3, in assay [1] (hGLP1R-MMH), the Ka amounted to 61900 M⁻¹ s⁻¹ and the “dissociation rate constant (kd)” value amounted to 0.000211 s⁻¹. Also, in the assay on HEK293/CRE-Luc cells, the half-maximal effective concentration (EC50) is > 100000 pM and the “HEK293/CRE-Luc Flow S/N” value turned out to be 18.0.

One may read the EC50 as the midpoint of the concentration-response curve. Read a high EC50 as a less potent agent. One may read the Kd as the constant that tells how readily two partners part at equilibrium.
